Reference: patent US8901076 (Molecular Partners, dated 2014)

Target: VEGF-A165 (UniProt P15692 27-191)
Experiment: cell-based or functional assay

Sequence of VEGF-A165 (P15692 other isoform, or with tags, fused parts or gaps): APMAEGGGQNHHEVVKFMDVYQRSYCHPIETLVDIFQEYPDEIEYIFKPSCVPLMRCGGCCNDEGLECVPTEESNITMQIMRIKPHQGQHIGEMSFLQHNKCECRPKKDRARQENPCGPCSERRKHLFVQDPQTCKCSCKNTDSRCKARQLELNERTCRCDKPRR

B1: DARPin #30 (designed binder)
chain: GSDLGKKLLEAARAGQDDEVRILMANGADVNTADSTGWTPLHLAVPWGHLEIVEVLLKYGADVNAKDFQGWTPLHLAAAIGHQEIVEVLLKNGADVNAQDKFGKTAFDISIDNGNEDLAEILQKAA
IC50 (read off the curve); sprout length of VEGF-A165 stimulated HUVEC spheroids: ~0.03 nM
